Source: US20260070986A1

Key:
[1] = molecular target: CD16A endogenously expressed on primary human NK cells (human) (UniProt P08637); test: flow cytometry on primary human NK cells, 37 °C, biotinylated antibody, streptavidin-FITC, without polyclonal human IgG
[2] = molecular target: CD16A endogenously expressed on primary human NK cells (human) (UniProt P08637); test: flow cytometry on primary human NK cells, biotinylated antibody, 37 C, without IgG, mean of 4
[3] = molecular target: human CD16A-mFc (158F) (sAg_107) (human) (UniProt P08637); test: ELISA, plate coated with human CD16A-mFc (158F), one-site fit, mean of 3
[4] = molecular target: CD16A endogenously expressed on primary human NK cells (human) (UniProt P08637); test: flow cytometry on primary human NK cells, biotinylated antibody, 37 C, with 10 mg/mL polyclonal human IgG as competitor, mean of 4
[5] = molecular target: human CD16A-mFc (158F) (sAg_107) (human) (UniProt P08637); test: ELISA on coated human CD16A-mFc (158F), anti-mouse HRP detection
[6] = molecular target: human CD16A-mFc (158V) (sAg_149) (human) (UniProt P08637); test: ELISA on coated human CD16A-mFc (158V), anti-mouse HRP detection
[7] = molecular target: recombinant human FcγRIIB (CD32B), biotinylated (human) (UniProt P31994); test: SPR (Biacore), 37 °C, biotin-captured human CD32B as ligand, steady-state affinity fit
[8] = molecular target: recombinant human FcγRIIC (CD32C), biotinylated (human) (UniProt P31995); test: SPR (Biacore), 37 °C, biotin-captured human CD32C as ligand, steady-state affinity fit
[9] = molecular target: recombinant murine FcγRIIB (CD32), biotinylated (murine) (UniProt P08101); test: SPR (Biacore T200), 37 C, biotin-captured receptor, steady-state affinity
[10] = molecular target: recombinant human FcγRIIA (CD32A), biotinylated (human) (UniProt P12318); test: as above
[11] = molecular target: recombinant cynomolgus FcγRIIB/C (CD32B/C), biotinylated (cynomolgus); test: SPR (Biacore), 37 °C, biotin-captured cynomolgus CD32B/C as ligand, steady-state affinity fit
[12] = molecular target: recombinant cynomolgus FcγRIIA (CD32A), biotinylated (cynomolgus); test: SPR (Biacore), 37 °C, biotin-captured cynomolgus CD32A as ligand, steady-state affinity fit

CD16A endogenously expressed on primary human NK cells (human), sequence (P08637 17-254 limits assumed): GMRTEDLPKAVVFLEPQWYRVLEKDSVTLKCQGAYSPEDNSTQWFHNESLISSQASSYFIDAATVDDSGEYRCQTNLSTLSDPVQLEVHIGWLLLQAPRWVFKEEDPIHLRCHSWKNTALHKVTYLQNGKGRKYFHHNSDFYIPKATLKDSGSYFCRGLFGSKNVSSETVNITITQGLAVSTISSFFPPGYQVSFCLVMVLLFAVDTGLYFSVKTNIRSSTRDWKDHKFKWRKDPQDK
control antibody MOR208 (anti-CD19 human IgG1 Fc enhanced), sequence (HC): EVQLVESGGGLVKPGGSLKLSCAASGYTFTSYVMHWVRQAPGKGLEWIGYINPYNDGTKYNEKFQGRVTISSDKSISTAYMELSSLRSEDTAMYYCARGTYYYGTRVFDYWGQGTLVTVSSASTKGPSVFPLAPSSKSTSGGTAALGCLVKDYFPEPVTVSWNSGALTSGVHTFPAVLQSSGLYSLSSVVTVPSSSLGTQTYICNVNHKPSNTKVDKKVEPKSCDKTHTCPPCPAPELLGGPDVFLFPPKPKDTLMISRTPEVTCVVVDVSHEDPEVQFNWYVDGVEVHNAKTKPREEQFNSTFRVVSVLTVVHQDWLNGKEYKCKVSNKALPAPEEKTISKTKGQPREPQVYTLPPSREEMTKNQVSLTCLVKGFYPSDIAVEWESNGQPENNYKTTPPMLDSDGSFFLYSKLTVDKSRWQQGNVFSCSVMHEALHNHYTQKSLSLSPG
control antibody MOR208 (anti-CD19 human IgG1 Fc enhanced), sequence (LC): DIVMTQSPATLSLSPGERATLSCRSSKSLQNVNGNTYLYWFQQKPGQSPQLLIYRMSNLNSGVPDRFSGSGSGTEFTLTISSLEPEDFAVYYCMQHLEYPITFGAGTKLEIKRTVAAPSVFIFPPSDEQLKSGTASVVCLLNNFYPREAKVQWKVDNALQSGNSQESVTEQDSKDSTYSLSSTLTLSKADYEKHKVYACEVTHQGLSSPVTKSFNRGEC
human CD16A-mFc (158F) (sAg_107) (human), sequence (P08637 17-208 limits assumed): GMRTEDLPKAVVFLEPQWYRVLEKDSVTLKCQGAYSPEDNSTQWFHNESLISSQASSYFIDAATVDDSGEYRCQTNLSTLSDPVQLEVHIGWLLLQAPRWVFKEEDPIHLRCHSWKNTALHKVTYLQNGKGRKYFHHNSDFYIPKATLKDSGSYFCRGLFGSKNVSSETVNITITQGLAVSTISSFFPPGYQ
recombinant human FcγRIIA (CD32A), biotinylated (human), sequence (P12318 34-218 limits assumed): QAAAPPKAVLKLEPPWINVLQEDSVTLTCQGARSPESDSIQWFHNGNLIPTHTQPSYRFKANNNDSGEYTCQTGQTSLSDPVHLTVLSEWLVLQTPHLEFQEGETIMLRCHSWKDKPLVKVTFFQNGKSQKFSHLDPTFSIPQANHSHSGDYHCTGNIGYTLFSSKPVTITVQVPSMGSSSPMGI
recombinant human FcγRIIC (CD32C), biotinylated (human), sequence (P31995 43-223 limits assumed): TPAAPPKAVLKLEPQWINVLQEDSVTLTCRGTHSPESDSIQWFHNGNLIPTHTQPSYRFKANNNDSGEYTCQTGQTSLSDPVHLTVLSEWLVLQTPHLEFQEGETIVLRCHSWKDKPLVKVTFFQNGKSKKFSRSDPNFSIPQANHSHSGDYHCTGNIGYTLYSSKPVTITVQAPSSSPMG
recombinant human FcγRIIB (CD32B), biotinylated (human), sequence (P31994 43-217 limits assumed): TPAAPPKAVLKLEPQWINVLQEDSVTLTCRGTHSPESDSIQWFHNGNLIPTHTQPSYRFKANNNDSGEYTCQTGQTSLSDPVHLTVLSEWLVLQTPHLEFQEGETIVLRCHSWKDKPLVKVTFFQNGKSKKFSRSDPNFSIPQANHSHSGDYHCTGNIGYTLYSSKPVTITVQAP
recombinant murine FcγRIIB (CD32), biotinylated (murine), sequence (P08101 30-207 limits assumed): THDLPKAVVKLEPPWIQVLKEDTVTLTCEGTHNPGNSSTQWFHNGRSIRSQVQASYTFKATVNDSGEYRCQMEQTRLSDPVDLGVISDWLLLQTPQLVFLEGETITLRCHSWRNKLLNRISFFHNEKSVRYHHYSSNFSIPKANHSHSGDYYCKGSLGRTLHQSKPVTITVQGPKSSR

Substance | EC50 (read off the curve) [1] [nM] | Kd [2] [nM] | Kd [3] [nM] | Kd [4] [nM] | EC50 (read off the curve) [5] [nM] | EC50 (read off the curve) [6] [nM] | Kd [7] [nM] | Kd [8] [nM] | Kd [9] [nM] | Kd [10] [nM] | Kd [11] [nM] | Kd [12] [nM]
anti-human CD16 antibody clone 3G8 | 0.4 | 0.3 | 0.02 | 54.6 | 0.03 | 0.3 |  |  |  |  |  | 
control antibody MOR208 (anti-CD19 human IgG1 Fc enhanced) |  |  |  |  |  |  | 821 | 474 | 1750 | 223 | 351 | 263
